# Reference: IntAct's records for PubMed 24229708
# B1: Runt-related transcription factor 3 (Homo sapiens), Q13761 (parent)
# chain: MRIPVDPSTSRRFTPPSPAFPCGGGGGKMGENSGALSAQAAVGPGGRARPEVRSMVDVLADHAGELVRTDSPNFLCSVLPSHWRCNKTLPVAFKVVALGDVPDGTVVTVMAGNDENYSAELRNASAVMKNQVARFNDLRFVGRSGRGKSFTLTITVFTNPTQVATYHRAIKVTVDGPREPRRHRQKLEDQTKPFPDRFGDLERLRMRVTPSTPSPRGSLSTTSHFSSQPQTPIQGTSELNPFSDPRQFDRSFPTLPTLTESRFPDPRMHYPGAMSAAFPYSATPSGTSISSLSVAGMPATSRFHHTYLPPPYPGAPQNQSGPFQANPSPYHLYYGTSSGSYQFSMVAGSSSGGDRSPTRMLASCTSSAASVAAGNLMNPSLGGQSDGVEADGSHSNSPTALSTPGRMDEAVWRPY
# Variants of: B1
# Conditions: with brd2_human BRD2, P25440
row,Variant,effect of a mutation on the interaction
1,K171R,decreasing interaction
2,K94R;K171R,disrupting interaction
3,K87R;K94R;K129R;K148R;K171R;K186R,disrupting interaction
4,K94R,disrupting interaction
